Data set [1] has as its target T1, wtPSP (human phosphoserine phosphatase, PSP) (Homo sapiens, UniProt P78330).
T1 construct: gene PSPH; recombinant human PSP with His-tag, plasmid pET28_hPSP, E. coli BL21(DE3), Talon purification, homodimer (54 kDa expected; 53 kDa by SEC)
T1 sequence (P78330 1-225): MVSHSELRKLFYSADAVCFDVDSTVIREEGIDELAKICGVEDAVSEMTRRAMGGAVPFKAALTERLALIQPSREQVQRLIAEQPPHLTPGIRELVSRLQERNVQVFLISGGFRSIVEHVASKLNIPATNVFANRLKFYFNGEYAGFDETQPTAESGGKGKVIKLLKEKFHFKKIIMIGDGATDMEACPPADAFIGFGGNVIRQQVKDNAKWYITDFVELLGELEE
Description: PNP-coupled phosphate release assay. In kind it is biochemical. The text has this: (§1) PNP-coupled phosphate release assay on wtPSP (human phosphoserine phosphatase, PSP)

The target of data set [2] is T2, wtPSP (human phosphoserine phosphatase, PSP) (Homo sapiens, UniProt P78330, R27S).
T2 construct: gene PSPH; recombinant human PSP with His-tag, plasmid pET28_hPSP, E. coli BL21(DE3), Talon purification, homodimer (54 kDa expected; 53 kDa by SEC)
T2 sequence (P78330 1-225 R27S): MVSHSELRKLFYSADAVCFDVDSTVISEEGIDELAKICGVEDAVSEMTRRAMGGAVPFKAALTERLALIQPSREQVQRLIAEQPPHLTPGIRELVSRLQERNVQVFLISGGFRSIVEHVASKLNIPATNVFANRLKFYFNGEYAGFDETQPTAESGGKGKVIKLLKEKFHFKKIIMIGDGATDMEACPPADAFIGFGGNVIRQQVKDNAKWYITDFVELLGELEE
Description: PNP-coupled phosphate release assay. The class given is biochemical.
Description: as §1

Data set [3] addresses T3, wtPSP (human phosphoserine phosphatase, PSP) (Homo sapiens, UniProt P78330, D32G).
T3 construct: gene PSPH; recombinant human PSP with His-tag, plasmid pET28_hPSP, E. coli BL21(DE3), Talon purification, homodimer (54 kDa expected; 53 kDa by SEC)
T3 sequence (P78330 1-225 D32G): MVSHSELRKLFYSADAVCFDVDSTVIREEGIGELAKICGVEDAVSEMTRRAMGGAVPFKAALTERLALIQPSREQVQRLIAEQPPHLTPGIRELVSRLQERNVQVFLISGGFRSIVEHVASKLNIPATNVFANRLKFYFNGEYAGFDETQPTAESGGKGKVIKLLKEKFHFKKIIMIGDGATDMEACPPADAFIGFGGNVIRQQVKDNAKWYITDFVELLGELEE
As to the kind of experiment: PNP-coupled phosphate release assay. The class given is biochemical.
Description: as §1

For data set [4], the target named is T4, wtPSP (human phosphoserine phosphatase, PSP) (Homo sapiens, UniProt P78330, D32G/R27S).
T4 construct: gene PSPH; recombinant human PSP with His-tag, plasmid pET28_hPSP, E. coli BL21(DE3), Talon purification, homodimer (54 kDa expected; 53 kDa by SEC)
T4 sequence (P78330 1-225 R27S/D32G): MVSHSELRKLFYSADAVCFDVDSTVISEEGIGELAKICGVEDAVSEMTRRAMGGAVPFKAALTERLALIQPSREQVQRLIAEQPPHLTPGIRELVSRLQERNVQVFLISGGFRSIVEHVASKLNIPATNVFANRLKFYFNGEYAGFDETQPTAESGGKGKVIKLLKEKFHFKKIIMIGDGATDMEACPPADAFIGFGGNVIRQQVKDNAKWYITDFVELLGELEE
Description: PNP-coupled phosphate release assay. In kind it is biochemical.
Description: as §1

In data set [5] the target is T1, wtPSP (human phosphoserine phosphatase, PSP). As to the kind of experiment: SAT-coupled continuous assay of L-Ser production (DTNB, […] nm type read-out). In kind it is biochemical. The note with it: 3 mM MgCl2, 50 mM Hepes, 100 mM KCl, pH 7, 37 °C; 12 nM enzyme.
Substrate in data set [6]: N[C@@H](COP(=O)(O)O)C(=O)O
As to the kind of experiment: SAT-coupled continuous assay of L-Ser production. The class given is biochemical, Homo sapiens. The settings on record: 3 mM MgCl2, 50 mM Hepes, 100 mM KCl, pH 7, 37 °C. An excerpt:
SAT-coupled continuous assay of L-Ser production on wtPSP (human phosphoserine phosphatase, PSP)

Regarding `N[C@@H](CO)C(=O)O` [L-Ser], the IC50 amounted to 273 ± 31 µM in data set [1], 171 ± 15 µM in data set [2], 746 ± 26 µM in data set [3] and 523 ± 74 µM in data set [4].
`N[C@@H](COP(=O)(O)O)C(=O)O` [3-PS]: in data set [5], the Km is 42 ± 12 µM.

B1: wtPSP (human phosphoserine phosphatase, PSP) (Homo sapiens; R27S) (protein)
chain: MVSHSELRKLFYSADAVCFDVDSTVISEEGIDELAKICGVEDAVSEMTRRAMGGAVPFKAALTERLALIQPSREQVQRLIAEQPPHLTPGIRELVSRLQERNVQVFLISGGFRSIVEHVASKLNIPATNVFANRLKFYFNGEYAGFDETQPTAESGGKGKVIKLLKEKFHFKKIIMIGDGATDMEACPPADAFIGFGGNVIRQQVKDNAKWYITDFVELLGELEE
notes: recombinant human PSP with His-tag, plasmid pET28_hPSP, E. coli BL21(DE3), Talon purification, homodimer (54 kDa expected; 53 kDa by SEC)
As for B1, in data set [6] (12 nM enzyme), the Km was 50 ± 3 µM, the kcat was 39 ± 1 s⁻¹ and the specificity constant (kcat/Km) came to 780000 M⁻¹ s⁻¹.

B2: wtPSP (human phosphoserine phosphatase, PSP) (Homo sapiens; D32G/R27S) (protein)
chain: MVSHSELRKLFYSADAVCFDVDSTVISEEGIGELAKICGVEDAVSEMTRRAMGGAVPFKAALTERLALIQPSREQVQRLIAEQPPHLTPGIRELVSRLQERNVQVFLISGGFRSIVEHVASKLNIPATNVFANRLKFYFNGEYAGFDETQPTAESGGKGKVIKLLKEKFHFKKIIMIGDGATDMEACPPADAFIGFGGNVIRQQVKDNAKWYITDFVELLGELEE
notes: as for B1
Regarding B2, in data set [6] (180 nM enzyme), the Km is 75 ± 12 µM, the kcat turned out to be 2.2 ± 0.1 s⁻¹ and the kcat/Km was 29300 M⁻¹ s⁻¹.

B3: wtPSP (human phosphoserine phosphatase, PSP) (Homo sapiens; D32G) (protein)
chain: MVSHSELRKLFYSADAVCFDVDSTVIREEGIGELAKICGVEDAVSEMTRRAMGGAVPFKAALTERLALIQPSREQVQRLIAEQPPHLTPGIRELVSRLQERNVQVFLISGGFRSIVEHVASKLNIPATNVFANRLKFYFNGEYAGFDETQPTAESGGKGKVIKLLKEKFHFKKIIMIGDGATDMEACPPADAFIGFGGNVIRQQVKDNAKWYITDFVELLGELEE
notes: as for B1
As to B3, in data set [6] (180 nM enzyme), the Km was 53 ± 5 µM, the kcat stood at 2.3 ± 0.1 s⁻¹ and the kcat/Km was determined as 43400 M⁻¹ s⁻¹.

Broadly, the IC50 is the concentration that inhibits the measured activity by half. As usually defined, the Km is the substrate concentration at which the rate is half of its maximum. A word on the kcat: it is the maximal rate divided by the concentration of active sites. As usually defined, the kcat/Km is the second-order rate constant that governs catalysis at low substrate concentration.

Source of the values: PMC12443467, “A phosphoserine phosphatase variant present in the brain of Alzheimer's disease patients favors nuclear mistargeting” (The Febs Journal, 2025).
